Experimental data taken from patent US20210206804A1.

Tests used:
[1] = molecular target: αvβ6 integrin on DX3puroβ6 cells (human) (UniProt P06756); assay: cell binding of the radiotracer, DX3puroβ6 cells (FIG. 27)
[2] = molecular target: αvβ6 integrin (purified, captured on the ELISA plate) (UniProt P06756); assay: ELISA (format not detailed at this place); not bearing K(IPA)E
[3] = molecular target: αvβ6 integrin on DX3puroβ6 cells (human) (UniProt P06756); assay: internalization of the radiotracer, DX3puroβ6 cells (FIG. 27)

Sequence of αvβ6 integrin on DX3puroβ6 cells (human) (P06756 31-1048 limits assumed, chain 1 of 2): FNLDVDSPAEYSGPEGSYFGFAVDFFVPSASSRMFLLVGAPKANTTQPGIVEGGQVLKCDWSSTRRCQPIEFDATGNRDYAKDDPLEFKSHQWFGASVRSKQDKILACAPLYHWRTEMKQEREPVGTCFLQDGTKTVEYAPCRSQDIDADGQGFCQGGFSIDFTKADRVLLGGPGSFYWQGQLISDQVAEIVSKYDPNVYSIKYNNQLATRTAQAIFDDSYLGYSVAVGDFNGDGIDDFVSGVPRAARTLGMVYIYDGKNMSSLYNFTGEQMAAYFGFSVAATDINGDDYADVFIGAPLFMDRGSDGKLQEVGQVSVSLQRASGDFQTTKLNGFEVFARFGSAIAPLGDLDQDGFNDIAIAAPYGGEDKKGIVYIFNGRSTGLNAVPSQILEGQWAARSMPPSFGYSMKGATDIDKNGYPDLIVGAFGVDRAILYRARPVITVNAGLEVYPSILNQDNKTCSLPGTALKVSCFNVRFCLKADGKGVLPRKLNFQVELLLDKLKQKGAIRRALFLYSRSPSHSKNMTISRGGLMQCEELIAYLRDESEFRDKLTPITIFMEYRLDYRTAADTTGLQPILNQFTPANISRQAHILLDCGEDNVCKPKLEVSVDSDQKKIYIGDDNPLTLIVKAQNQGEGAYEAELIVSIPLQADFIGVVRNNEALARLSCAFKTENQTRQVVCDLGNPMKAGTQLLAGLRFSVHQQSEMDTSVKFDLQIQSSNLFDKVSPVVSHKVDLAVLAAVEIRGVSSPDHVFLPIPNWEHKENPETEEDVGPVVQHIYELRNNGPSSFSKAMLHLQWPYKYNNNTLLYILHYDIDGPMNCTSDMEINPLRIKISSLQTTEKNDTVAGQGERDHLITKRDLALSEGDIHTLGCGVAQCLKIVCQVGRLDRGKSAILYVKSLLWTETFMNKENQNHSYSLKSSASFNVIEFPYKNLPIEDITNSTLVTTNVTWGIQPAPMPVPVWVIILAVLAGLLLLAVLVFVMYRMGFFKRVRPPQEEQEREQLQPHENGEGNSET
Sequence of αvβ6 integrin on DX3puroβ6 cells (human) (P18564 22-788 limits assumed, chain 2 of 2, further chain): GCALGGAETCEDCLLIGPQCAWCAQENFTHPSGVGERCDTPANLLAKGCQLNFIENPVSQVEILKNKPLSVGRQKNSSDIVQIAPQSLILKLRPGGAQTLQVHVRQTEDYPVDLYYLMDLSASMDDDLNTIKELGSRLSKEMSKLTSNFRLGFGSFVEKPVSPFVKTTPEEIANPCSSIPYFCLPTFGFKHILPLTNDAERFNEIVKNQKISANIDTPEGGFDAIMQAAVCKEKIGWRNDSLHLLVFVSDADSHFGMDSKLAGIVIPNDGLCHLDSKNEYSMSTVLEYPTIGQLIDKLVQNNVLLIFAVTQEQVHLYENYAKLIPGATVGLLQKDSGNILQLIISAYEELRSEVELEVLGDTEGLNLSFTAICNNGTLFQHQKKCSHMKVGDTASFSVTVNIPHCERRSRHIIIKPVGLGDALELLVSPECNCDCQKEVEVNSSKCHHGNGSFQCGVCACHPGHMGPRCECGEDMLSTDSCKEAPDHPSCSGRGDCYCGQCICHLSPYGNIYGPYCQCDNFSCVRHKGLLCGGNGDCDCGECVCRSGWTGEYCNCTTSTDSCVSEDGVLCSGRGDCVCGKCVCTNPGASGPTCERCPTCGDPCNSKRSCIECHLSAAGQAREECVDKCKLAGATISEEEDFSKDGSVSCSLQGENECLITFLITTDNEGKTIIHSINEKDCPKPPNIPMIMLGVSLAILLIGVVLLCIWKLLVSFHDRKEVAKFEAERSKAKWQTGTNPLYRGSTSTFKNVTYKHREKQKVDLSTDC
Sequence of αvβ6 integrin (purified, captured on the ELISA plate) (P06756 31-992, chain 1 of 2): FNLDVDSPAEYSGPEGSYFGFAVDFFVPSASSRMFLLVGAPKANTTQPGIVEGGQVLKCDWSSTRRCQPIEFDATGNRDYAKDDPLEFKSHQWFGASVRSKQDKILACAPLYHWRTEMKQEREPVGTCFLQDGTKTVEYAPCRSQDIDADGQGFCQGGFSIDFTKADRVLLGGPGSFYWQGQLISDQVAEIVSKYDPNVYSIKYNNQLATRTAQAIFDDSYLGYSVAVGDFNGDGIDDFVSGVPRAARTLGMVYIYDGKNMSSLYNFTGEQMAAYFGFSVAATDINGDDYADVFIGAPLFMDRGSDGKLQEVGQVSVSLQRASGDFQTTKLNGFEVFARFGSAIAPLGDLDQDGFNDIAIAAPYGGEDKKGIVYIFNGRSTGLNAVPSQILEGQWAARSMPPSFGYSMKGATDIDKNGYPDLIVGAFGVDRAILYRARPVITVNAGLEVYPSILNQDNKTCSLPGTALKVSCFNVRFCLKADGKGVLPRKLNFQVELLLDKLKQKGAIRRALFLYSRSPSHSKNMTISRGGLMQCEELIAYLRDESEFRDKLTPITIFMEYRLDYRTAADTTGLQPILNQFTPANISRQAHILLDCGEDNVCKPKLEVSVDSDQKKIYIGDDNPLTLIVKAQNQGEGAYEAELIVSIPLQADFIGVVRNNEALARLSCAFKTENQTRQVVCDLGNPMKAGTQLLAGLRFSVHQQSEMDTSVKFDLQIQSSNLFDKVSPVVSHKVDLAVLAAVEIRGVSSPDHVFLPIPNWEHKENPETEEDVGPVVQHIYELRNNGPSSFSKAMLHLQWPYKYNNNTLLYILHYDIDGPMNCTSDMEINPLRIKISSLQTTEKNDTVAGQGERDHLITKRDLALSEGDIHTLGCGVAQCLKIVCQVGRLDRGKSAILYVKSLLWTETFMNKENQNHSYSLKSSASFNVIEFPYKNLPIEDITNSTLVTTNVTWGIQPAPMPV
Sequence of αvβ6 integrin (purified, captured on the ELISA plate) (P18564 22-707, chain 2 of 2, further chain): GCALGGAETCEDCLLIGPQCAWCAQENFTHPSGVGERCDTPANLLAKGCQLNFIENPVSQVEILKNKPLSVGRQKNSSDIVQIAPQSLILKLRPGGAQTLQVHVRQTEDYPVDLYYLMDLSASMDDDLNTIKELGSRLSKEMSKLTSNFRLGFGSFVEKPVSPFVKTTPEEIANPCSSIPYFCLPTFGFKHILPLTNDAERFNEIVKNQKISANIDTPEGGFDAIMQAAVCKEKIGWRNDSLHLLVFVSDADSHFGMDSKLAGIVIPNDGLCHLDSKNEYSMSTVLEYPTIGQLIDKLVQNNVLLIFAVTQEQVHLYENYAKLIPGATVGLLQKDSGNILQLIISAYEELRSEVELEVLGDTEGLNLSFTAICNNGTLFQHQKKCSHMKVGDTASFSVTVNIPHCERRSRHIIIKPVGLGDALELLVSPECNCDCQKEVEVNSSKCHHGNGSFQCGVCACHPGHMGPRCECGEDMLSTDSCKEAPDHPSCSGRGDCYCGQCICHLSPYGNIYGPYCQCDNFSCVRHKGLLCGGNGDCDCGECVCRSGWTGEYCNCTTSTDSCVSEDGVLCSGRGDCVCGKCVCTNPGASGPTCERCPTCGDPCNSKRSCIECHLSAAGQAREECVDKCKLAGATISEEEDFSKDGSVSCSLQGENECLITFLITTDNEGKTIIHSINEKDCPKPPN

## PEGylated A20FMDV2 not bearing K(IPA)E (peptide)
[1]
  bound (%): 52%
[2]
  IC50: 2 nM
[3]
  internalized (% of bound radioactivity): 44%
